The nature of the data set: soluble on expression in E. coli; label from the status in PepcDB or PDB records.
As for “MGSDKIHHHHHHMKSVQDRLSQTTNPSPKSYQQLYQEIVSDPEVAAFIKKEGLTQQEITLSISKFLEYISQRDLFVKQDEAYIAKGYQPVLVMNEGYADVSYLETEELVEYRRLEAIKNRIQLINMPASLKNVTVADIDKSDENRVEVMLAIADFVKRFEEKPKGLYIYGNFGIGKSYLMAYLANLLSKTHLQSTTMLHYPTFVVDIKNAIKDGSVKERIDEIKMAQVLVLDDIGAEQHSPWVRDDVLQVILQYRMQENLPTFFTSNFSFDDLERHFASGKSGDETWQAKRVMERIRYLARDLHLKGNNRR”, the “soluble on expression in E. coli” value was “not soluble”.
For “GGELVLLPAPQIPLIMKIMKKHTPTWVPGVPTLYQKIVEAAERDGISISGVRNSFSGASSLPVETVARWEALTGGLLVEGYGLTETSPIIVGNPMTTDRRPGYVGVPFPDTEIRIANPDNLDETMPDGQEGEVLVRGPQVFSGYLNNPEATAKSFHGQWYRTGDVGIMEEDGFIRLVARIKEVIITGGFNVYPAEVEEVLRNHPDITDATVVGLPRGD”, the “soluble on expression in E. coli” value is given as “not soluble”.
For “MNSLRPELLELTPQALTALSNAGFVKRSLKELENGNVPEISHENSALIATFSDGVRTQLANGQALKEAQCTYGASGMCRHRVMLVLSYQRLCATAQPTGKEEEWDPAIWLEELATLPDATRKRAQALVAKSITIELFCAPGEIPSARLPMSDVRFYSRSSIRFARCDCIEGTLCEHVVLAVQAFVQAKAQQAELTHLIWQMRSEHVTSSDDPFASEEGKTCRQYVQQLSQALWLSGISQPLIHYEAAFSRAQQAAERCSWRWVSESLRQLRASVDAFHARASHYHAGECLRQLAALNSRLNCAQEMARSDSVGEVPPVPWRTVVGSGIAGEAKLDHLRLVSLGMRCWQDIEHYGLRIWFTDPDTGSILHLSRSWPRSEQEDSPAATRRLFSFQAGALAGGQIVSQAAKRSADGELLLATRNRLSSVVPLSPDAWQMLSAPLRQPGIVALREYLRQRPPACIRPLNQVDNLFILPVAECISLGWDSSRQTLDAQVISGEGEDNLLTLSLPASASAPYAIERMAALLQQTDDPVCLVSGFVSFVDGQLTLEPQVMMTKTRAWALDAETAPVVVSLPSASVLPVPSTAHQLLMRCQALLIQLLHNGWRYQEQSAINQAELLANDLTAVGFYRLAHVLAQFRNTESEARVEAMNNGVLLCEQLFPMLQQQG” the value was “not soluble”; for “TDAPANQGFIIGVTGCPAGVAHTYLAAEALEKGAAAMGYEIKVETNGSIGVKNSPTAEEIERADAIIVACDKQVDMNRFAGKRVVKTNVKAPIRDAQGLINEALNAPTY”, “not soluble”.
Consider “MEKSLETVPGLDLSGEDIEMYYQYVRFVDRFLRFNRNYQIEYFKLSYPGDGSSEREVDLLKRWIDTVIQLKVKDLDFFDYSWEWGFDNFQLPSTIYICESLVSLKLSTVTLPSVKSVSLPFLRVLKLGAVKFADHLDLETLISGCTALETLAIRFFDRVQVLQVSSQSLLSFTHVAPKLVFTHAVRKPLAEKDLSIVIDAPRLEYLKLSDHQTSSFIIKNPGSLVAVDIDINLSSGFDSRNMIRDFLVGISSVKNMTISSIILKFYDYRFKMLPTFLEICPNLKSLILKSTEELGIKESSMFSGPQDFLPSLEYVEMKMPLKKGLLLEIRMLVGYFLEKATILKKLTLCLDDYRKRKESLIPRILAIPRISTSCEVVVL”, for which the “soluble on expression in E. coli” value is “soluble”.
As to “ANATVKMGSDSGALVFEPSTVTIKAGEEVKWVNNKLSPHNIVFAADGVDADTAAKLSHKGLAFAAGESFTSTFTEPGTYTYYCEPHRGAGMVGKVVVD”, the “soluble on expression in E. coli” value is “soluble”.
Take “MGLDTIEKGADGLDSIKSLAFVYGETDNPYTKTSELFTWLFGHEIADTVLLLLNDHIYILGSNRKVEFFGSVTGDNQSSGKVPTVSTLLRDKTDKDAGNFEKLIDHIKSAGGDVGNFVKEKFSSEFVSSWNKALEEGGVNKNDVTLAFTHLFAVKDDKEMDLIRKSAQATTASWTAARARYVEISDNEKVLIVLKIVELGVLLRVRHSVLSNQFAAFMKDSKVQQALAKYEADTCYDPIKMLIFVDRKYDSVVVPIFGIPVPFHISMIKNCSQSVEGDLTYLRINFATPGSQVGKDSGQFPHPLAHYMKEFTFRASNIKDHHSDSTAPSRNLSTAFRFIKEMQKRFKSEEAEQREKEGAVKQDKLILSQNKLNPKLNLLICPNIIQKLITGSLEAHTNGFRFLFNSFSRYTSLRAFFEEGGWSFLNAESDNEEAMDDSDDSDAYDPEEEDASAGSGSESDEDESEGEETESDDDDEGSLDSDEFVQPIFAF”: the “soluble on expression in E. coli” value is “not soluble”.
For “HNGWTWEASLNLSANRNKLTELASGSKDDKANNWFVGHPIDCIYDYEKVGLWNSDDPDFQYLDILEPGGNEGMIKVKYTGDRDASGKPTRAIGPEDRQIISLEPKFQGGFSTRVAYKGFDLNVITAFRCGGKLISTLHHSNGYLNMLTGRRGQVDVDYWTPENKGAKYPKPGGIQSGDNPKYGSTLGYFDSSYWKVRNITLGYNFEKQAWLTRMGIQSLRAYLSVQNPFIICSPFHKETGLDPETNSYGNENVAVTEGIQKRFLTVGTNSPSTRNYLFGINLTF” the value was “not soluble”.
Take “IKLNTLNTMSMGVTMRYMSEKYFKMMCGVQMEINYSQRGWDEKIEDDSGNSYSRTMNYLEIPFMAHLAFGKDALNRGVKVFFNAGPQIGFFLGDNEKINWTTSTTRPEHGKEVENKFDYGITAGAGLEVSTGIGHFLLEGRYYMGLSDFYKNSKRDFFERSAHSFIGIRLSYLI”: the “soluble on expression in E. coli” value is listed as “not soluble”.
As to “MGSDKIHHHHHHMKQSKKIIITCAVTGSIHTPTMSPYLPITPEEIVKEGVAAAEAGAAMLHLHARDPLNGRPSQDPDLFMRFLPQLKERTDAILNITTGGGLGMSLDERLAPARAARPEVASMNMGSLNFNISQAAAKFDTFKFDWERPYLAGTRDFILSNTFSQIERGMTELGASGTRFEFECYDVGHLYNLAHFVDRKLVEPPFFLQCVFGILGGIGADPENLLHMRTIADRLFGQDYYLSVLAAGRHQMPFVTMSAILGGNVRVGLEDSLYSGKGQLATSNAEQVRKIRRIIEELSLDIATPDEARAMLKTKGANETSF”, the “soluble on expression in E. coli” value is “not soluble”.
For “MPLSPYLSFAGNCADAIAYYQQTLGAELLYKLSFGEMPPSAADNEEGCPSGMRFPDTAIAHANMRIAGSDIMMSDASASGRAHYSGFTLVLDTQDVAEGKRWFDNLAAQGQIEMDWQETFWAQGFGKVSDRFGVPWMINVVKHQPAT”, the “soluble on expression in E. coli” value is “not soluble”.
With “MAHHHHHHMLKELNLNTTFLRQDYRTPLKQLSVDPIFCRRRGGRAILHFEMNQVQGTVAVTLTGCVAQACVPHACGAGWGNMKVEQLRSFFLSFVVVADAAQPSYFLWGEVSVHEMNGTAGNHLAIDGQSLRTCTTASVIPPLSEIPPEVFIVKAKKFRCQMHEKGFGDSTTCP”, the “soluble on expression in E. coli” value is recorded as “not soluble”.
With “MNTKCLREKIEKIKPHLLKTASDTLQGYVFGCMIGVFSSSEKPSLRHVHESGKSFAKVSMIYSTTESALQLYGSKNAPLNSLISGAVAGGLGVNDRSKKSILTGAASFGLYTGMSNIFSVQGQK”, the “soluble on expression in E. coli” value is “not soluble”.
Regarding “MASQLTDAFARKFYYLRLSITDVCNFRCTYCLPDGYKPSGVTNKGFLTVDEIRRVTRAFARLGTEKVRLTGGEPSLRRDFTDIIAAVRENDAIRQIAVTTNGYRLERDVASWRDAGLTGINVSVDSLDARQFHAITGQDKFNQVMAGIDAAFEAGFEKVKVNTVLMRDVNHHQLDTFLNWIQHRPIQLRFIELMETGEGSELFRKHHISGQVLRDELLRRGWIHQLRQRSDGPAQVFCHPDYAGEIGLIMPYEKDFCATCNRLRVSSIGKLHLCLFGEGGVNLRDLLEDDTQQQALEARISAALREKKQTHFLHQNNTGITQNLSYIGGLEHHHHHH”, the “soluble on expression in E. coli” value is “not soluble”.
On to “GSHMMGAKMAESLRLTCLACGQANKVPSDRLAAGPKCGICGAGLITGKVAGIDPAILARAERDDLPLLVDFWAPWCGPCRQMAPQFQAAAATLAGQVRLAKIDTQAHPAVAGRHRIQGIPAFILFHKGRELARAAGARPASELVGFVRGKLGARA”, for which the “soluble on expression in E. coli” value is “soluble”.
With “MEPEEERIRYSQRLRGTMRRRYEDDGISDDEIEGKRTFDLEEKLHTNKYNANFVTFMEGKDFNVEYIQRGGLRDPLIFKNSDGLGIKMPDPDFTVNDVKMCVGSRRMVDVMDVNTQKGIEMTMAQWTRYYETPEEEREKLYNVISLEFSHTRLENMVQRPSTVDFIDWVDNMWPRHLKESQTESTNAILEMQYPKVQKYCLMSVRGCYTDFHVDFGGTSVWYHIHQGGKVFWLIPPTAHNLELYENWLLSGSQGDIFLGDRVSDCQRIELKQGYTFVIPSGWIHAVYTPTDTLVFGGNFLHSFNIPMQLKIYNIEDRTRVPNKFRYPFYYEMCWYVLERYVYCITNRSHLTKEFQKESLSMDLELNGLESGNGDEEAVDREPRQVHLTHFELEGLRCLVDKLESLPLHKKCVPTGIEDEDALIADVKILLEELANSDPKLALTGVPIVQWP”, the “soluble on expression in E. coli” value is “soluble”.
As for “KSITIQTPYLIPDQPIYESLTIALAAGVKVNIFIPDRPDHPFVYRATQYYAQEFIDFGANVYRYDGGFLHSKLLIIDDEIVSIGSANMDIRSFELSFEANAFIYSSYFAKKIEKQISIDISKSKLLSKKDFETQ”, the “soluble on expression in E. coli” value was “not soluble”.
Turning to “SNAWGLSVERSTYFLAPADRHYLADYARQAEDAWRREGAAGAERFRKELSAKEDTWVALVGPHLESLGSTPLSAEESSHLTFMRKLDWPMSRRLQDELPYVSIEFPGHPEQGRLVIQLPERLLPG”, the “soluble on expression in E. coli” value was “soluble”.
Consider “MIIGVLAIQGDVEEHEEAIKKAGYEAKKVKRVEDLEGIDALIIPGGESTAIGKLMKKYGLLEKIKNSNLPILGTCAGMVLLSKGTGINQILLELMDITVKRNAYGRQVDSFEKEIEFKDLGKVYGVFIRAPVVDKILSDDVEVIARDGDKIVGVKQGKYMALSFHPELSEDGYKVYKYFVENCVKK”, for which the “soluble on expression in E. coli” value is given as “soluble”.
In the case of “QPTAPKDFSSGFWDFNDGTTQGFGVNPDSPITAINVENANNALKISNLNSKGSNDLSEGNFWANVRISADIWGQSINIYGDTKLTMDVIAPTPVNVSIAAIPQSSTHGWGNPTRAIRVWTNNFVAQTDGTYKATLTISTNDSPNFNTIATDAADSVVTNMILFVGSNSDNISLDNIKFTK”, the “soluble on expression in E. coli” value is given as “soluble”.
Turning to “MSLSRCLPLGQNARVIIIPARLAHAASTQAAAATDDAPNFFQKLAHRFQGVPLKGEAHAPKSMFEDCNKEWSAPEPLPAIPKDFKEHPDRDLVNYPYPARPMYPPKSRLLMMPDSWFTPFQKVTGVSGPYLFFGGLFAFLVNKELWVFEEQGHMTVGWILFYLLVTRTAGYKIDQGLYNGYQERVNFFKGLIQEDLKEAVEFKKTSAKQTESLNSIKESYPTALKESMALQLEATYRKNVQSVATELKRRIDYLKETEESKARVEREQLLKLINSEVDKEFSDRSFKDKYLQNAIQQLKGLNVQL”, the “soluble on expression in E. coli” value was “not soluble”.
Then “MGSDKIHHHHHHLVPPDYQDPPSDFTAEVEAGLQLNTGNNESKNFNSRAYLTYDTPKTRQEGTFKVYYAADGTETTSEKYDLFLQSSYKLNRGYVFGRGEFTWDDFGSFTEIRTLSTGYGFDLIKSYKTKLSLEAGPGYRYDMPRATLSDPEPRANREVILRTAARYSVKLQEYTSLNADVTAETGLDNNTLTLDMSYKNTFLQDWAFKIGMNVRYTQDVPQDSQRTDTTTTFNLLYTFQ”, with “not soluble”.
As for “MRGSHHHHHHGSACMKRQGASSERKRARIPSGKAGAANGFLMEVCVDSVESAVNAERGGADRIELCSGLSEGGTTPSMGVLQVVKQSVQIPVFVMIRPRGGDFLYSDREIEVMKADIRLAKLYGADGLVFGALTEDGHIDKELCMSLMAICRPLPVTFHRAFDMVHDPMAALETLLTLGFERVLTSGCDSSALEGLPLIKRLIEQAKGRIVVMPGGGITDRNLQRILEGSGATEFHCSARSTRDSGMKFRNSSVAMGASLSCSEYSLKVTDVTKVRTLNAIAKNILV”, the “soluble on expression in E. coli” value is given as “soluble”.

The values above are taken from the DeepSol protein solubility set.
